From patent US20240100162A1 (published 2024)

Legend:
[1] = molecular target: T1, MAGE-B2 peptide, Y3F peptide on HLA-A*02:01 (human); assay: killing
T1 peptide: GVFDGEEHSV

[2] = molecular target: T2, MAGE-B2 peptide, S9W peptide on HLA-A*02:01 (human); assay: killing
T2 peptide: GVYDGEEHWV

[3] = molecular target: T3, MAGE-B2 peptide, V2T peptide on HLA-A*02:01 (human); assay: killing
T3 peptide: GTYDGEEHSV

[4] = molecular target: T4, MAGE-B2 peptide, V10A peptide on HLA-A*02:01 (human); assay: killing
T4 peptide: GVYDGEEHSA

[5] = molecular target: T5, MAGE-B2 peptide, V10L peptide on HLA-A*02:01 (human); assay: killing
T5 peptide: GVYDGEEHSL

[6] = molecular target: T6, MAGE-B2 peptide, S9P peptide on HLA-A*02:01 (human); assay: killing
T6 peptide: GVYDGEEHPV

[7] = molecular target: T7, MAGE-B2 peptide, H8Y peptide on HLA-A*02:01 (human); assay: killing
T7 peptide: GVYDGEEYSV

[8] = molecular target: T8, MAGE-B2 peptide, S9Q peptide on HLA-A*02:01 (human); assay: killing
T8 peptide: GVYDGEEHQV

[9] = molecular target: T9, MAGE-B2 peptide, E7C peptide on HLA-A*02:01 (human); assay: killing
T9 peptide: GVYDGECHSV

[10] = molecular target: T10, MAGE-B2 peptide, E7M peptide on HLA-A*02:01 (human); assay: killing
T10 peptide: GVYDGEMHSV

[11] = molecular target: T11, MAGE-B2 peptide, E7N peptide on HLA-A*02:01 (human); assay: killing
T11 peptide: GVYDGENHSV

[12] = molecular target: T12, MAGE-B2 peptide, E7Y peptide on HLA-A*02:01 (human); assay: killing
T12 peptide: GVYDGEYHSV

[13] = molecular target: T13, MAGE-B2 peptide, S9T peptide on HLA-A*02:01 (human); assay: killing
T13 peptide: GVYDGEEHTV

[14] = molecular target: T14, MAGE-B2 peptide, H8W peptide on HLA-A*02:01 (human); assay: killing
T14 peptide: GVYDGEEWSV

[15] = molecular target: T15, MAGE-B2 peptide, S9E peptide on HLA-A*02:01 (human); assay: killing
T15 peptide: GVYDGEEHEV

[16] = molecular target: T16, MAGE-B2 peptide, S9A peptide on HLA-A*02:01 (human); assay: killing
T16 peptide: GVYDGEEHAV

[17] = molecular target: T17, MAGE-B2 peptide, H8N peptide on HLA-A*02:01 (human); assay: killing
T17 peptide: GVYDGEENSV

[18] = molecular target: T18, MAGE-B2 peptide, E7L peptide on HLA-A*02:01 (human); assay: killing
T18 peptide: GVYDGELHSV

[19] = molecular target: T19, MAGE-B2 peptide, S9C peptide on HLA-A*02:01 (human); assay: killing
T19 peptide: GVYDGEEHCV

[20] = molecular target: T20, MAGE-B2 peptide, S9N peptide on HLA-A*02:01 (human); assay: killing
T20 peptide: GVYDGEEHNV

[21] = molecular target: T21, MAGE-B2 peptide, E7D peptide on HLA-A*02:01 (human); assay: killing
T21 peptide: GVYDGEDHSV

[22] = molecular target: T22, MAGE-B2 peptide, E7H peptide on HLA-A*02:01 (human); assay: killing
T22 peptide: GVYDGEHHSV

[23] = molecular target: T23, MAGE-B2 peptide, S9I peptide on HLA-A*02:01 (human); assay: killing
T23 peptide: GVYDGEEHIV

[24] = molecular target: T24, MAGE-B2 peptide, D4C peptide on HLA-A*02:01 (human); assay: killing
T24 peptide: GVYCGEEHSV

[25] = molecular target: T25, MAGE-B2 peptide, V2L peptide on HLA-A*02:01 (human); assay: killing
T25 peptide: GLYDGEEHSV

[26] = molecular target: T26, MAGE-B2 peptide, S9D peptide on HLA-A*02:01 (human); assay: killing
T26 peptide: GVYDGEEHDV

[27] = molecular target: T27, MAGE-B2 peptide, V10I peptide on HLA-A*02:01 (human); assay: killing
T27 peptide: GVYDGEEHSI

[28] = molecular target: T28, MAGE-B2 peptide, E6V peptide on HLA-A*02:01 (human); assay: killing
T28 peptide: GVYDGVEHSV

[29] = molecular target: T29, MAGE-B2 peptide, E7Q peptide on HLA-A*02:01 (human); assay: killing
T29 peptide: GVYDGEQHSV

[30] = molecular target: T30, MAGE-B2 peptide, D4N peptide on HLA-A*02:01 (human); assay: killing
T30 peptide: GVYNGEEHSV

[31] = molecular target: T31, MAGE-B2 peptide, S9G peptide on HLA-A*02:01 (human); assay: killing
T31 peptide: GVYDGEEHGV

[32] = molecular target: T32, MAGE-B2 peptide, V2I peptide on HLA-A*02:01 (human); assay: killing
T32 peptide: GIYDGEEHSV

[33] = molecular target: T33, MAGE-B2 peptide, H8F peptide on HLA-A*02:01 (human); assay: killing
T33 peptide: GVYDGEEFSV

[34] = molecular target: T34, MAGE-B2 peptide, S9V peptide on HLA-A*02:01 (human); assay: killing
T34 peptide: GVYDGEEHVV

[35] = molecular target: T35, MAGE-B2 peptide, V2M peptide on HLA-A*02:01 (human); assay: killing
T35 peptide: GMYDGEEHSV

[36] = molecular target: T36, MAGE-B2 peptide on HLA-A*02:01 (human); assay: multimer staining
T36 peptide: GVYDGEEHSV

[37] = molecular target: T37, MAGE-B2 peptide, H8V peptide on HLA-A*02:01 (human); assay: killing
T37 peptide: GVYDGEEVSV

[38] = molecular target: T38, MAGE-B2 peptide, S9R peptide on HLA-A*02:01 (human); assay: killing
T38 peptide: GVYDGEEHRV

[39] = molecular target: T39, MAGE-B2 peptide, E6Q peptide on HLA-A*02:01 (human); assay: killing
T39 peptide: GVYDGQEHSV

[40] = molecular target: T40, MAGE-B2 peptide, E7T peptide on HLA-A*02:01 (human); assay: killing
T40 peptide: GVYDGETHSV

[41] = molecular target: T41, MAGE-B2 peptide, E6C peptide on HLA-A*02:01 (human); assay: killing
T41 peptide: GVYDGCEHSV

Measured: binding result

B1: TCR1 (TCR, V domains shown)
Valpha: KQEVTQIPAALSVPEGENLVLNCSFTDSAIYNLQWFRQDPGKGLTSLLLIQSSQREQTSGRLNASLDKSSGRSTLYIAASQPGDSATYLCAAMKTSYDKVIFGPGTSLSVIP
Vbeta: GEEVAQTPKHLVRGEGQKAKLYCAPIKGHSYVFWYQQVLKNEFKFLISFQNENVFDETGMPKERFSAKCLPNSPCSLEIQATKLEDSAVYFCASSQGQGGYGYTFGSGTRLTVV
recognises: [1] | [2] | [3] | [4] | [5] | [6] | [7] | [8] | [9] | [10] | [11] | [12] | [13] | [14] | [15] | [16] | [17] | [18] | [19] | [20] | [21] | [22] | [23] | [24] | [25] | [26] | [27] | [28] | [29] | [30] | [31] | [32] | [33] | [34] | [35] | [36]

B2: TCR2 (TCR, V domains shown)
Valpha: QKEVEQNSGPLSVPEGAIASLNCTYSDRGSQSFFWYRQYSGKSPELIMSIYSNGDKEDGRFTAQLNKASQYVSLLIRDSQPSDSATYLCAVNIPFSNSGGYQKVTFGTGTKLQVIP
Vbeta: NAGVTQTPKFRVLKTGQSMTLLCAQDMNHEYMYWYRQDPGMGLRLIHYSVGEGTTAKGEVPDGYNVSRLKKQNFLLGLESAAPSQTSVYFCASRHPGQYNQPQHFGDGTRLSIL
recognises: [37] | [1] | [2] | [3] | [4] | [5] | [6] | [7] | [38] | [39] | [8] | [9] | [10] | [11] | [12] | [40] | [13] | [14] | [15] | [16] | [17] | [18] | [19] | [20] | [21] | [22] | [23] | [24] | [25] | [26] | [27] | [28] | [41] | [29] | [30] | [31] | [32] | [33] | [34] | [35] | [36]
